These results are taken from patent US20250313602A1 (published 2025).

Assay [1] concerns the target T1, human IL-2Rα protein (10165-H08H, Sino Biological) (human, UniProt P01589 22-213).
T1 chain: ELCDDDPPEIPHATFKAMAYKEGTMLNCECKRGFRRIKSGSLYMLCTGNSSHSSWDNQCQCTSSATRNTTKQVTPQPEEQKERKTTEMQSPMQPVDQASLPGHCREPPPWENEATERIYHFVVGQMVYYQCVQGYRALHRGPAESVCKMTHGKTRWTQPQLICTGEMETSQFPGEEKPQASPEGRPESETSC
Kind of assay: ELISA. (In an ELISA, binding on a coated surface is turned into a signal by an enzyme label.)

Assay [2] concerns the target T2, human IL-2Rβ protein (10696-H05H, Sino Biological) (human, UniProt P14784 27-239).
T2 chain: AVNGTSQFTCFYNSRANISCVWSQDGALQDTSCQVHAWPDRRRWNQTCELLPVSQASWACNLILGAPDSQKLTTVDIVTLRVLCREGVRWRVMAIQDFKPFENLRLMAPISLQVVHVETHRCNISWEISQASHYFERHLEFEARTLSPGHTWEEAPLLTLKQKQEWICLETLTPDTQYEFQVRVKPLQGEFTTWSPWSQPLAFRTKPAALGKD
In words: ELISA.

B1: IL-2-Fc fusion protein (Fc fusion)
chain: APTSSSTKKTQLQLEHLLLDLQMILNGINNYKNPKLTAMLTFKFYMPKKATELKHLQCLEEELKPLEEVLNLAQSKNFHFDPRDVVSNINVFVLELKGSETTFMCEYADETATIVEFLNRWITFCQSIISTLTGGGGSGGGGSGGGGSEPKSCDKTHTCPPCPAPEAAGGPSVFLFPPKPKDTLYITREPEVTCVVVDVSHEDPEVKFNWYVDGVEVHNAKTKPREEQYNSTYRVVSVLTVLHQDWLNGKEYKCKVSNKALPAPIEKTISKAKGQPREPQVYTLPPSREEMTKNQVSLTCLVKGFYPSDIAVEWESNGQPENNYKTTPPVLDSDGSFFLYSKLTVDKSRWQQGNVFSCSVMHEALHNHYTQKSLSLSPK
Broadly, the EC50 is the concentration at which the effect is half-maximal. A high value points to weaker potency. As for B1, the results for the 50% effective concentration (EC50) in assay [1] and in assay [2] were 3.06 nM and 94 nM, respectively.
